Source: US20040077547A1, “FVIIa antagonists” (Genentech, Inc., priority 1999, published 2004)
Where no end group is shown, it is not given here.

Legend:
[1] = target: T1, TF (Homo sapiens, UniProt P13726); test: Peptide-phage binding to wells coated with TF; conditions: polyvalent phage display; also BSA-coated wells
T1 construct: TF1-243 for membrane tissue factor composed of the extracellular domain and transmembrane amino acid residues 1-243
Protocol: (§1) Selection Conditions—TF1-243 (Paborsky, L. R., et al., J. Biol. Chem. 266: 21911 (1991)) or recombinant human FVIIa (2 μg/ml each) were immobilized directly to Maxisorp plates (Nunc) in 50 mM ammonium bicarbonate, pH 9.3 by incubating overnight at 4° C. Wells were blocked using Sorting Buffer (50 mM HEPES, pH 7.2, 5 mM CaCl2, 5 mM MgCl2, 150 mM NaCl, 1% BSA) for 1 h at 25° C. Recombinant human FVIIa (2 μg/ml) in Sorting Buffer was added for 30 min to wells previously coated and blocked with TF to form the TF-FVIIa complex. Phage from the libraries described above were pooled into 3 groups. Pool A contained XiCXjCXk where j=5-7; Pool B contained X4CX2GPX4CX4, X20 and XiCXjCXk where j=4; Pool E contained XiCXjCXk where j=8-10. Phage from each pool were incubated with the immobilized targets in Sorting Buffer for 3 h at 25° C.; generally about 5×10^10 phage were added at the beginning of each round. Unbound phage were removed by repetitive washing with Wash Buffer (50 mM HEPES, pH 7.2, 150 mM NaCl, 0.005% Tween 20); remaining phage were eluted with 500 mM KCl, 10 mM HCl, pH 2. The eluted phage were then propagated in XL1-Blue cells with VCSM13 helper phage (Stratagene) overnight at 37° C. Enrichment could be monitored by titering the number of phage which bound to a target coated well compare to a well coated with BSA. […]

[2] = target: T2, TF-FVIIa complex (Homo sapiens, UniProt P08709); test: Peptide-phage binding to immobilized TF-FVIIa
T2 construct: proteolysis of FVII to FVIIa at a site (Arg152-Ile153 for human FVII (hFVII))
Protocol: as §1

[3] = target: T3, recombinant human FVIIa (Homo sapiens, UniProt P08709); test: Peptide-phage binding to immobilized FVIIa; conditions: polyvalent phage display
T3 construct: proteolysis of FVII to FVIIa at a site (Arg152-Ile153 for human FVII (hFVII))
T3 sequence (P08709 61-212 limits assumed): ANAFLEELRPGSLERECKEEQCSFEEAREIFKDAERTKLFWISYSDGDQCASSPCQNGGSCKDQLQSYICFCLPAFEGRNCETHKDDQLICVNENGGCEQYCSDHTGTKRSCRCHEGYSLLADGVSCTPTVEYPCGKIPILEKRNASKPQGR
T3 sequence (P08709 213-466 limits assumed): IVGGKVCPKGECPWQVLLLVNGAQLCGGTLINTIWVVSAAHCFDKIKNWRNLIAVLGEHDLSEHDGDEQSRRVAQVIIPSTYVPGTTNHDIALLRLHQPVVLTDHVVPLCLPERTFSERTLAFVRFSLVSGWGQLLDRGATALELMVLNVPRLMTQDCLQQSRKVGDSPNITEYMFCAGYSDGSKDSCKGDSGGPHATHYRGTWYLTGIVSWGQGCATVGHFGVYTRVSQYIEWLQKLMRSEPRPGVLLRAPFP
Protocol: as §1

[4] = target: T3, recombinant human FVIIa; test: FVIIa Binding ELISA (competition with TF183b); conditions: for affinity for FVIIa: compared with SEQ ID NO: 4
Protocol: FVIIa Binding ELISA—The ability of peptides to compete with biotinylated TF183 (TF183b) (or other peptides described herein that could be biotinylated as described) for binding to FVIIa was monitored using a FVIIa Binding ELISA or a TF-FVIIa Binding ELISA. Microtiter plates were coated overnight with 2 μg/ml recombinant human FVIIa or 2 μg/ml TF1-243 (Paborsky, L. R., et al., J. Biol. Chem. 266: 21911 (1991)) in 50 mM ammonium bicarbonate pH 9 at 4° C.; all other steps were performed at room temperature. Plates were then blocked with 1% BSA in Assay Buffer (50 mM HEPES, pH 7.2, 5 mM CaCl2, 150 mM NaCl). For the TF-FVIIa ELISA, recombinant human FVIIa (2 μg/ml) in 1% BSA in Assay Buffer was added for 30 min to the wells previously coated and blocked with TF to form the TF-FVIIa complex. Dilutions of peptide in Assay Buffer plus 0.05% Tween 20 were added to the microtiter plate along with 5 nM TF183b for 1 h. The microtiter plate was washed 3 times with Assay Buffer plus 0.05% Tween 20 and the biotinylated-peptide bound was detected with a Streptavidin/HRP conjugate (Streptavidin-POD, Roche Molecular Biochemicals). The amount of HRP bound was measured using ABTS/H2O2 substrate (Kirkegaard and Perry Laboratories) and monitoring the absorbance at 405 nm. The absorbance at 405 nm was plotted versus the concentration of peptide originally added to the well. Sigmoidal curves were fit to a four-parameter equation by nonlinear regression analysis (Marquardt, J. Soc. Indust. Appl. Math. 11:431-441 (1963); the concentration of each peptide required to give a half-maximal signal in the assay was calculated from the curves and is referred to as the IC50 value.

[5] = target: T4, TF-FVIIa (Homo sapiens, UniProt P08709); test: FX Activation Assay; assay type: biochemical; conditions: compared with SEQ ID NO: 4
T4 construct: proteolysis of FVII to FVIIa at a site (Arg152-Ile153 for human FVII (hFVII))
Protocol: FX Activation Assay—Activation of FX by TF-FVIIa was monitored at room temperature as a function of peptide concentration. Each assay sample contained 100 μl of 460 pM relipidated TF1-243 (Kelley, R. F., et al. Blood 89:3219-3227 (1997)) and 30 pM FVIIa in HBS/Ca buffer (20 mM HEPES, pH 7.4, 5 mM CaCl2, 150 mM NaCl, 0.1% PEG 8000); after 20 min, 25 μl of peptide diluted in HBS/Ca Buffer was added. Following a 30 min incubation the reaction was initiated by the addition of 25 μl of 1 μM FX in HBS/Ca (Note: this yields a final concentration of 306 pM TFPC, 20 pM FVIIa, and 166 nM FX). For kinetic analysis, the final concentration of FX was varied from between 20 and 500 nM. Aliquots of 25 μl were removed at 1, 3, 5, 7 and 9 min and quenched in 25 μl of 50 mM EDTA. The FXa generated in each aliquot could be measured by the addition of 100 μl of 250 μM Spectrozyme fXa (American Diagnostica), 50 mM Tris, pH 8, 50 mM NaCl, 0.0025% Triton X-100. The rate of FXa generated at each peptide concentration was proportional to the initial slope of the absorbance at 405 nm vs. time. Sigmoidal curves were fit to a four-parameter equation by nonlinear regression analysis (Marquardt, J. Soc. Indust. Appl. Math. 11:431-441 (1963)); the concentration of each peptide required to give a half-maximal signal in the assay was calculated from the curves and is referred to as the IC50 value.

[6] = target: T5, BSA (bovine, UniProt P02769 25-607); test: phage binding to coated wells
T5 construct: Control coat
T5 sequence (P02769 25-607 limits assumed): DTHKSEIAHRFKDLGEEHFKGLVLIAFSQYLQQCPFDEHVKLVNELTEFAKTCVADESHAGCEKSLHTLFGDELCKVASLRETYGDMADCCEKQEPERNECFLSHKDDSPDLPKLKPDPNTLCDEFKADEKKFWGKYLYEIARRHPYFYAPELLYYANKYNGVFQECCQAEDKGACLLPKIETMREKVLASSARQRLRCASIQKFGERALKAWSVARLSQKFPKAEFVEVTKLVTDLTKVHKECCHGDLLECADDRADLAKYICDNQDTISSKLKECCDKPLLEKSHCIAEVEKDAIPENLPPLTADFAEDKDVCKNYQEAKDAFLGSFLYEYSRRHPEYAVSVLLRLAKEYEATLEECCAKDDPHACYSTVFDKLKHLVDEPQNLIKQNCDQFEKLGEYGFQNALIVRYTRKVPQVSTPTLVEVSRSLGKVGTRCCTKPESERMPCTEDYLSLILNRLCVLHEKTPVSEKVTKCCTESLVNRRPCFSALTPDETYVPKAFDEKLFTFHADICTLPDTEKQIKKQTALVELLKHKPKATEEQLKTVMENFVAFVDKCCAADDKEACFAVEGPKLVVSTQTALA

T4 sequence (P13726 33-275 partner limits assumed, one chain of several): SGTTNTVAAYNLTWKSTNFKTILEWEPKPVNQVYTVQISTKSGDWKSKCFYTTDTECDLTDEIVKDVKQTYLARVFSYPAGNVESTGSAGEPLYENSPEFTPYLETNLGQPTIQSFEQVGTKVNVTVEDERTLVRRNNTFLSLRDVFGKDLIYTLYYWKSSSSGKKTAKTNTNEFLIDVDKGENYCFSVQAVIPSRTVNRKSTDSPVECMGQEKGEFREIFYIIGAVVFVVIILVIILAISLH
T2 sequence (P13726 33-275 partner limits assumed, one chain of several): as above
T1 sequence (P13726 33-275): as the sequence (P13726 33-275 partner limits assumed, one chain of several) above

## SAEWEVLCWTWEGCGSVGLV [TF53]
[1]
  binding of phage bearing the sequence to wells coated with TF: did not bind
[2]; active site alkylated with biotinylated EGR chloromethylketone or blocked by TF7I-C
  binding to covalently and noncovalently active site blocked TF-FVIIa: bound
[2]; polyvalent phage display
  binding of phage bearing the sequence to immobilized TF-FVIIa: bound specifically
[3]
  binding of phage bearing the sequence to immobilized FVIIa: bound specifically

## EEWEVLCWTWETCER [TF183]
[4]; compared with TF65 (SEQ ID NO: 4), values in FIG. 4, not given
  IC50 for FVIIa: decreased IC50

## EEWEVLCWTWETCERGEG [TF100]
[4]
  affinity for FVIIa: improved affinity
[5]
  ability to inhibit FX activation: increased ability to inhibit FX activation

## TF100Z: TF100 peptide fused to the Z consensus domain of protein A (EEWEVLCWTWETCERGEGGGGSGG)
[4]
  affinity for FVIIa: improved affinity
[5]
  ability to inhibit FX activation: increased ability to inhibit FX activation

B1: TF53 peptide-phage (polyvalent phage clone from Pool A bearing SAEWEVLCWTWEGCGSVGLV) (peptide)
peptide: SAEWEVLCWTWEGCGSVGLV
modifications: cysteine pairing not given here; also: displayed on phage as a coat-protein fusion
[6]
  binding result: no binding
